Measured values reported in patent publication US20180002435A1 (CELLECTIS, published 2018).

B1: anti-BCMA CAR of SEQ ID NO 130 (other)
chain: EVQLLESGGGLVQPGGSLRLSCAASGFTFSSYAMNWVRQAPGKGLEWVSAILSSGGSTYYADSVKGRFTISRDNSKNTLYLQMNSLRAEDTAVYYCARYWPMDIWGQGTLVTVSSGGSCPYSNPSLCSGGSEIVLTQSPGTLSLSPGERATLSCRGGQSVSSSYLAWYQQKPGQAPRLLMYDASIRATGIPDRFSGSGSGTDFTLTISRLEPEDFAVYYCQQYQSWPLTFGQGTKVEIKSDPTTTPAPRPPTPAPTIASQPLSLRPEACRPAAGGAVHTRGLDFACDIYIWAPLAGTCGVLLLSLVITLYCRRGRKKLLYIFKQPFMRPVQTTQEEDGCSCRFPEEEEGGCELRVKFSRSADAPAYQQGQNQLYNELNLGRREEYDVLDKRRGRDPEMGGKPRRKNPQEGLYNELQKDKMAEAYSEIGMKGERRRGKGHDGLYQGLSTATKDTYDALHMQALPPRE
notes: Single-chain CAR on primary T cells
B2: anti-BCMA CAR of SEQ ID NO 131 (other)
chain: EVQLLESGGGLVQPGGSLRLSCAASGFTFSSYAMNWVRQAPGKGLEWVSAILSSGGSTYYADSVKGRFTISRDNSKNTLYLQMNSLRAEDTAVYYCARYWPMDIWGQGTLVTVSSGGGGGSCPYSNPSLCSGGGGGSEIVLTQSPGTLSLSPGERATLSCRGGQSVSSSYLAWYQQKPGQAPRLLMYDASIRATGIPDRFSGSGSGTDFTLTISRLEPEDFAVYYCQQYQSWPLTFGQGTKVEIKSDPTTTPAPRPPTPAPTIASQPLSLRPEACRPAAGGAVHTRGLDFACDIYIWAPLAGTCGVLLLSLVITLYCRRGRKKLLYIFKQPFMRPVQTTQEEDGCSCRFPEEEEGGCELRVKFSRSADAPAYQQGQNQLYNELNLGRREEYDVLDKRRGRDPEMGGKPRRKNPQEGLYNELQKDKMAEAYSEIGMKGERRRGKGHDGLYQGLSTATKDTYDALHMQALPPRE
notes: as for B1
B3: anti-BCMA CAR of SEQ ID NO 132 (other)
chain: GGGGSCPYSNPSLCSGGGGSGGGGSEVQLLESGGGLVQPGGSLRLSCAASGFTFSSYAMNWVRQAPGKGLEWVSAILSSGGSTYYADSVKGRFTISRDNSKNTLYLQMNSLRAEDTAVYYCARYWPMDIWGQGTLVTVSSGGSCPYSNPSLCSGGSEIVLTQSPGTLSLSPGERATLSCRGGQSVSSSYLAWYQQKPGQAPRLLMYDASIRATGIPDRFSGSGSGTDFTLTISRLEPEDFAVYYCQQYQSWPLTFGQGTKVEIKSDPTTTPAPRPPTPAPTIASQPLSLRPEACRPAAGGAVHTRGLDFACDIYIWAPLAGTCGVLLLSLVITLYCRRGRKKLLYIFKQPFMRPVQTTQEEDGCSCRFPEEEEGGCELRVKFSRSADAPAYQQGQNQLYNELNLGRREEYDVLDKRRGRDPEMGGKPRRKNPQEGLYNELQKDKMAEAYSEIGMKGERRRGKGHDGLYQGLSTATKDTYDALHMQALPPRE
notes: as for B1
B4: anti-BCMA CAR of SEQ ID NO 133 (other)
chain: GGGGSCPYSNPSLCSGGGGSGGGGSEVQLLESGGGLVQPGGSLRLSCAASGFTFSSYAMNWVRQAPGKGLEWVSAILSSGGSTYYADSVKGRFTISRDNSKNTLYLQMNSLRAEDTAVYYCARYWPMDIWGQGTLVTVSSGGGGGSCPYSNPSLCSGGGGGSEIVLTQSPGTLSLSPGERATLSCRGGQSVSSSYLAWYQQKPGQAPRLLMYDASIRATGIPDRFSGSGSGTDFTLTISRLEPEDFAVYYCQQYQSWPLTFGQGTKVEIKSDPTTTPAPRPPTPAPTIASQPLSLRPEACRPAAGGAVHTRGLDFACDIYIWAPLAGTCGVLLLSLVITLYCRRGRKKLLYIFKQPFMRPVQTTQEEDGCSCRFPEEEEGGCELRVKFSRSADAPAYQQGQNQLYNELNLGRREEYDVLDKRRGRDPEMGGKPRRKNPQEGLYNELQKDKMAEAYSEIGMKGERRRGKGHDGLYQGLSTATKDTYDALHMQALPPRE
notes: as for B1
B5: anti-BCMA CAR of SEQ ID NO 134 (other)
chain: EVQLLESGGGLVQPGGSLRLSCAASGFTFSSYAMNWVRQAPGKGLEWVSAILSSGGSTYYADSVKGRFTISRDNSKNTLYLQMNSLRAEDTAVYYCARYWPMDIWGQGTLVTVSSGGSCPYSNPSLCSGGSEIVLTQSPGTLSLSPGERATLSCRGGQSVSSSYLAWYQQKPGQAPRLLMYDASIRATGIPDRFSGSGSGTDFTLTISRLEPEDFAVYYCQQYQSWPLTFGQGTKVEIKSDPGSGGGGSCPYSNPSLCSGGGGSAPTTTPAPRPPTPAPTIASQPLSLRPEACRPAAGGAVHTRGLDFACDIYIWAPLAGTCGVLLLSLVITLYCRRGRKKLLYIFKQPFMRPVQTTQEEDGCSCRFPEEEEGGCELRVKFSRSADAPAYQQGQNQLYNELNLGRREEYDVLDKRRGRDPEMGGKPRRKNPQEGLYNELQKDKMAEAYSEIGMKGERRRGKGHDGLYQGLSTATKDTYDALHMQALPPRE
notes: as for B1
B6: anti-BCMA CAR of SEQ ID NO 135 (other)
chain: EVQLLESGGGLVQPGGSLRLSCAASGFTFSSYAMNWVRQAPGKGLEWVSAILSSGGSTYYADSVKGRFTISRDNSKNTLYLQMNSLRAEDTAVYYCARYWPMDIWGQGTLVTVSSGGGGGSCPYSNPSLCSGGGGGSEIVLTQSPGTLSLSPGERATLSCRGGQSVSSSYLAWYQQKPGQAPRLLMYDASIRATGIPDRFSGSGSGTDFTLTISRLEPEDFAVYYCQQYQSWPLTFGQGTKVEIKSDPGSGGGGSCPYSNPSLCSGGGGSAPTTTPAPRPPTPAPTIASQPLSLRPEACRPAAGGAVHTRGLDFACDIYIWAPLAGTCGVLLLSLVITLYCRRGRKKLLYIFKQPFMRPVQTTQEEDGCSCRFPEEEEGGCELRVKFSRSADAPAYQQGQNQLYNELNLGRREEYDVLDKRRGRDPEMGGKPRRKNPQEGLYNELQKDKMAEAYSEIGMKGERRRGKGHDGLYQGLSTATKDTYDALHMQALPPRE
notes: as for B1
B7: anti-BCMA CAR of SEQ ID NO 136 (other)
chain: GGGGSCPYSNPSLCSGGGGSGGGGSEVQLLESGGGLVQPGGSLRLSCAASGFTFSSYAMNWVRQAPGKGLEWVSAILSSGGSTYYADSVKGRFTISRDNSKNTLYLQMNSLRAEDTAVYYCARYWPMDIWGQGTLVTVSSGGGGSGGGGSGGGGSEIVLTQSPGTLSLSPGERATLSCRGGQSVSSSYLAWYQQKPGQAPRLLMYDASIRATGIPDRFSGSGSGTDFTLTISRLEPEDFAVYYCQQYQSWPLTFGQGTKVEIKSDPGSGGGGSCPYSNPSLCSGGGGSAPTTTPAPRPPTPAPTIASQPLSLRPEACRPAAGGAVHTRGLDFACDIYIWAPLAGTCGVLLLSLVITLYCRRGRKKLLYIFKQPFMRPVQTTQEEDGCSCRFPEEEEGGCELRVKFSRSADAPAYQQGQNQLYNELNLGRREEYDVLDKRRGRDPEMGGKPRRKNPQEGLYNELQKDKMAEAYSEIGMKGERRRGKGHDGLYQGLSTATKDTYDALHMQALPPRE
notes: as for B1
B8: anti-BCMA CAR of SEQ ID NO 137 (other)
chain: GGGGSCPYSNPSLCSGGGGSGGGGSEVQLLESGGGLVQPGGSLRLSCAASGFTFSSYAMNWVRQAPGKGLEWVSAILSSGGSTYYADSVKGRFTISRDNSKNTLYLQMNSLRAEDTAVYYCARYWPMDIWGQGTLVTVSSGGSCPYSNPSLCSGGSEIVLTQSPGTLSLSPGERATLSCRGGQSVSSSYLAWYQQKPGQAPRLLMYDASIRATGIPDRFSGSGSGTDFTLTISRLEPEDFAVYYCQQYQSWPLTFGQGTKVEIKSDPGSGGGGSCPYSNPSLCSGGGGSAPTTTPAPRPPTPAPTIASQPLSLRPEACRPAAGGAVHTRGLDFACDIYIWAPLAGTCGVLLLSLVITLYCRRGRKKLLYIFKQPFMRPVQTTQEEDGCSCRFPEEEEGGCELRVKFSRSADAPAYQQGQNQLYNELNLGRREEYDVLDKRRGRDPEMGGKPRRKNPQEGLYNELQKDKMAEAYSEIGMKGERRRGKGHDGLYQGLSTATKDTYDALHMQALPPRE
notes: as for B1
B9: anti-BCMA CAR of SEQ ID NO 138 (other)
chain: GGGGSCPYSNPSLCSGGGGSGGGGSEVQLLESGGGLVQPGGSLRLSCAASGFTFSSYAMNWVRQAPGKGLEWVSAILSSGGSTYYADSVKGRFTISRDNSKNTLYLQMNSLRAEDTAVYYCARYWPMDIWGQGTLVTVSSGGGGGSCPYSNPSLCSGGGGGSEIVLTQSPGTLSLSPGERATLSCRGGQSVSSSYLAWYQQKPGQAPRLLMYDASIRATGIPDRFSGSGSGTDFTLTISRLEPEDFAVYYCQQYQSWPLTFGQGTKVEIKSDPGSGGGGSCPYSNPSLCSGGGGSAPTTTPAPRPPTPAPTIASQPLSLRPEACRPAAGGAVHTRGLDFACDIYIWAPLAGTCGVLLLSLVITLYCRRGRKKLLYIFKQPFMRPVQTTQEEDGCSCRFPEEEEGGCELRVKFSRSADAPAYQQGQNQLYNELNLGRREEYDVLDKRRGRDPEMGGKPRRKNPQEGLYNELQKDKMAEAYSEIGMKGERRRGKGHDGLYQGLSTATKDTYDALHMQALPPRE
notes: as for B1

Target: T1, recombinant BCMA protein fused to an FC fragment (SEQ ID NO 151)
T1 construct: also called BCMA-Fc fusion protein
T1 chain: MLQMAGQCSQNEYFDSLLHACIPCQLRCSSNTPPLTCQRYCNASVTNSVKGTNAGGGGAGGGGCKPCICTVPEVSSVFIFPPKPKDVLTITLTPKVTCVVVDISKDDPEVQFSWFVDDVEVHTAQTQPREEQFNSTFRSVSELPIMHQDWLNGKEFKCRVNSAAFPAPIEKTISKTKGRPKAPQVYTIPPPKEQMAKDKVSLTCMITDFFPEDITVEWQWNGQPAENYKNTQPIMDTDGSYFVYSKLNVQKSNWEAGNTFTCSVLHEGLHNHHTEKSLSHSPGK
Test: flow cytometry of CAR T cells, BCMA-Fc and PE labeled anti-FC antibody
Experimental: The CDC assay consisted in incubating 0.2 10⁶ transfected cells either alone, or in the presence of Rituximab (RTX, ROCHE, 400 ng) and Babby Rabbit Complement (BRC, AbD Serotec, ref#C12CA, 100 μL of the solution diluted according to the manufacturer protocol) for 2 hours at 37° C. in a final volume of 400 μL of Xvivo 10% FBS. At the end of incubation, anti BCMA-CAR T cells were recovered and labeled with recombinant BCMA protein fused to an FC fragment (SEQ ID NO 151) and a PE labeled anti-FC secondary monoclonal antibody (Jackson ImmunoResearch, ref#115-115-164, diluted 1/200). Cells were then recovered in PFA 4% before being analyzed by flow cytometry. The flow cytometry gating strategy was to determine the viability of anti-BCMA CAR positive T cells (PE positive cells) among the singlet found in the total population of cells. This analysis was performed on cells incubated alone and in the presence of RTX and BRC. Results are expressed as the ratio named “Relative frequency of viable cells among BCMA CAR positive T cells (with respect to control experiment)” described below: […]

Binding result, binds:
B1
B2
B3
B4
B5
B6
B7
B8
B9
